Measured values published in article PMC7990223.

What was measured:
human ACE2 (human) = human ACE2 (human) (UniProt Q9BYF1); assay: flow cytometry on cells
mouse ACE2 (mouse) = mouse ACE2 (mouse) (UniProt Q8R0I0); assay: flow cytometry on cells
mouse ACE2 (mouse), sequence (Q8R0I0 18-805): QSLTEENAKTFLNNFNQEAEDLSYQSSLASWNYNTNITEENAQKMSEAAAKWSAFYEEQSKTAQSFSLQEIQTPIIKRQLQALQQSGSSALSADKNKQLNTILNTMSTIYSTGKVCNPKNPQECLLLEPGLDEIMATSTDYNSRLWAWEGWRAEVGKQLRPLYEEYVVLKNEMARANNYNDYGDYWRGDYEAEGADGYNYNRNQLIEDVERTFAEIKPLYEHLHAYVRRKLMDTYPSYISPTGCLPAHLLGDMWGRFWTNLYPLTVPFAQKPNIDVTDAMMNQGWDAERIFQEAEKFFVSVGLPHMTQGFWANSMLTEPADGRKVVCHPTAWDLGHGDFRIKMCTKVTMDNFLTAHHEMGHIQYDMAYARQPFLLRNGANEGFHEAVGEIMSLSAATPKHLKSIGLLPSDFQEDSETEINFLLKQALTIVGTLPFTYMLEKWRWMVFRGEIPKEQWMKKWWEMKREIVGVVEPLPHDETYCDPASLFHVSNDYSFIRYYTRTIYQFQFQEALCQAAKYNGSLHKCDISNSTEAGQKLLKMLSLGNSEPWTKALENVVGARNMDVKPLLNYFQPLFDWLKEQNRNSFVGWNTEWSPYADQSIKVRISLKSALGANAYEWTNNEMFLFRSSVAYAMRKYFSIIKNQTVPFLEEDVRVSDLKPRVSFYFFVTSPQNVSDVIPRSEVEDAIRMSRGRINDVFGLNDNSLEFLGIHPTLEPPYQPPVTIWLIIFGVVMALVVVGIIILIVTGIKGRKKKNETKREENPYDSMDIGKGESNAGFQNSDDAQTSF

human ACE2 (human), sequence (Q9BYF1 18-805): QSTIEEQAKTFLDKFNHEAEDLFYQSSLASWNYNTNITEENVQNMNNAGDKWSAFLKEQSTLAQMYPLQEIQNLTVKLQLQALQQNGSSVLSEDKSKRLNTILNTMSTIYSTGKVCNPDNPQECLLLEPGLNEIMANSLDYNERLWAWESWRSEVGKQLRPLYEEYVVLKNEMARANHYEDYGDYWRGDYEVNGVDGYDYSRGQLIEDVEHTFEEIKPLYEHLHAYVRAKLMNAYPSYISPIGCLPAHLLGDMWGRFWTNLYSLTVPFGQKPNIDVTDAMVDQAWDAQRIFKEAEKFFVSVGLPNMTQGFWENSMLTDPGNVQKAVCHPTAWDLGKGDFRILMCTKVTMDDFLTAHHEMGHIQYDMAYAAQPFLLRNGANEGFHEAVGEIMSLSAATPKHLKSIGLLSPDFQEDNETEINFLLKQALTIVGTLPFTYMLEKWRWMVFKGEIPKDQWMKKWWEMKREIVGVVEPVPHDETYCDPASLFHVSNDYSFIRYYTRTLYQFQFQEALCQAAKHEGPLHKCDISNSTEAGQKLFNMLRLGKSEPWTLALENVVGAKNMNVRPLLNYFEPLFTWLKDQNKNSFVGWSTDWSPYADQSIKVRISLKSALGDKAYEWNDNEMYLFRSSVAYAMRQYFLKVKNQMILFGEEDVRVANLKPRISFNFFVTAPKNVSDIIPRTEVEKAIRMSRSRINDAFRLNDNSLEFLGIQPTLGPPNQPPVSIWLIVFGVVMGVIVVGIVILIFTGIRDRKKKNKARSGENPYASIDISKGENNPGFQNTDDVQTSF

## S1 domain of the SARS-CoV spike protein C-terminally fused with Fc (from UniProt P59594 14-667) (Fc fusion)
Human ACE2 (human)
  percent of ACE2-expressing (zsGreen1+) cells positive for S1-Fc: 64%
Mouse ACE2 (mouse)
  percent of ACE2-expressing (zsGreen1+) cells positive for S1-Fc: 40.4%
